Measurements published in patent US20240168030A1, “DIRECT FLUORESCENT GLYCAN LABELING” (BIO-TECHNE CORPORATION, priority 2019, published 2024).

What was measured:
Type in all cases: biochemical
[1] = Enzymatic synthesis of sLe^x by glycan gel electrophoresis, substrate A2[3]; details: completed product sLe^x
Protocol: (§1) FIG. 21A. Schematic view of the enzymatic steps for Le^X and sLe^X synthesis on the antibody glycan G0. The glycan short names follow that of FIG. 10. FIG. 21B Kinetic comparison of galactosylation on G0 by B4GalT1, sialyation on G2 by ST3Gal4 and ST6Gal1, and fucosylation on A2[3] by FUT7. The reaction time for B4GalT1 was 10 minutes. The reaction time for ST3Gal4, FUT7 and ST6Gal1 was 5 hours. In each case, the labeling enzyme was subject to a 3-fold serial dilution starting from 1 μg each of B4GalT1, FUT7 and ST6Gal1, and 3 μg ST3Gal4. FIG. 21C. […] Reaction time for both cases was 20 minutes. […] FIG. 21D. […] Reaction time for both cases was 20 minutes.
(§2) For a typical labeling reaction, 1 μg to 5 μg target protein was mixed with 0.2 nmol fluorophore-conjugated GDP-fucose and 0.2 μg of a fucosyltransferase in 30μL 25 mM Tris pH 7.5, 10 mM MnCl2. The mixture was incubated at 37° C. for 30 minutes. […] To release labeled glycans from a glycoprotein, the sample was first denatured by heating at 95° C. for two minutes in the presence of 0.5% SDS and 80 mM β-mercaptoethanol and then renatured with 1% Triton X-100, and finally treated with PNGase F at 10:1 mass ratio at 37° C. for 20 minutes. To release glycans from antibody, a sample was directly treated with Endo S at 10:1 mass ratio at 37° C. for 20 minutes. All samples were separated by sodium dodecyl sulfate—polyacrylamide gel electrophoresis (SDS-PAGE) at […]. For separating labeled glycoproteins and antibodies, 4-20% gradient SDS gel was used. For separating labeled free glycans, 15% or 17% gel was used. After separation, all gels were imaged using a FluorChem M imager (ProteinSimple, Bio-Techne, Minneapolis, MN). For glycoproteins samples, the gel was also imaged with traditional methods such as silver staining or trichloroethanol (TCE) staining.
For sLe^x synthesis, G0 was first converted to G2 by B4GalT1, then converted to A2[3] by ST3Gal4, and finally converted to A2[3]F2 (carrier of sLe^x) by FUT7 (FIG. 21A). […]

[2] = Enzymatic synthesis of Le^x and sLe^x by glycan gel electrophoresis, substrate G2; details: substrate G2, completed product Le^x
Protocol: as §1, §2
For sLe^x synthesis, G0 was first converted to G2 by B4GalT1, then converted to A2[3] by ST3Gal4, and finally converted to A2[3]F2 (carrier of sLe^x) by FUT7 (FIG. 21A). During these steps, different amounts of enzymes, and multiple reaction times were applied to reveal the intermediate products.
Intermediate products are signs for the progress of each enzymatic step.

[3] = tested on: fetal bovine fetuin and asialofetuin; experiment: Labeling of fetuin and asialofetuin by fucosyltransferases with GDP-Cy5-Fuc; details: GDP-Cy5-Fuc donor, FIG. 9A
Protocol: FIG. 9A-FIG. 9B show exemplary results of probing substrate glycans of various fucosyltransferases on fetuin and asialofetuin. FIG. 9A. Probing substrate glycans of fucosyltransferases with guanosine 5′-diphosphate activated Cy5 conjugated fucose (GDP-Cy5-Fuc). […] FUT9 labeled itself (indicated by an arrow in the gel). FIG. 9B. Tolerance of Alexa-Fluor®555 (555), Alexa-Fluor®488 (488), and Cy5 by the indicated fucosyltransferases. All reactions were incubated at 37° C. for 30 minutes and then separated on SDS-PAGE and imaged with silver staining (upper panels) and fluorescent imager (lower panels). M, molecular marker.
For a typical labeling reaction, 1 μg to 5 μg target protein was mixed with 0.2 nmol GDP-f-Fuc and 0.2 μg of a fucosyltransferase in 30 μL buffer of 25 mM Tris pH 7.5, 10 mM MnCl2. The mixture was incubated at 37° C. for 30 minutes. The reaction was then separated by sodium dodecyl sulfate—polyacrylamide gel electrophoresis (SDS-PAGE) and the gel was directly imaged using a fluorescent imager FluorChem M ProteinSimple, Bio-Techne, Minneapolis, MN), followed by imaging with traditional protein imaging methods such as silver staining or trichloroethanol (TCE) staining.
The labeled samples were then separated on SDS-PAGE, followed by traditional protein gel imaging and fluorescent imaging.

Which of fetuin and asialofetuin the fucosyltransferase labeled [3]: labeled both fetuin and asialofetuin
B1: FUT6: recombinant α-3 fucosyltransferase active on lactosamine and sialyllactosamine (protein, UniProt P51993 1-359, looked up)
4-galactosyl-N-acetylglucosami …: MDPLGPAKPQWSWRCCLTTLLFQLLMAVCFFSYLRVSQDDPTVYPNGSRFPDSTGTPAHSIPLILLWTWPFNKPIALPRCSEMVPGTADCNITADRKVYPQADAVIVHHREVMYNPSAQLPRSPRRQGQRWIWFSMESPSHCWQLKAMDGYFNLTMSYRSDSDIFTPYGWLEPWSGQPAHPPLNLSAKTELVAWAVSNWGPNSARVRYYQSLQAHLKVDVYGRSHKPLPQGTMMETLSRYKFYLAFENSLHPDYITEKLWRNALEAWAVPVVLGPSRSNYERFLPPDAFIHVDDFQSPKDLARYLQELDKDHARYLSYFRWRETLRPRSFSWALAFCKACWKLQEESRYQTRGIAAWFT
Activity based on reaction completion [1]: 13.5 pmol/min/µg
Activity based on reaction completion [2]: 2.3 pmol/min/µg
